Results as given in patent US20200010567A1 (NEURIMMUNE, published 2020).

Key:
[1] = target: T1, BSA-coupled (PA)15 DPR protein peptide (bovine, UniProt P02769 25-607, conjugated via a bifunctional linker (SMCC) to bovine serum albumin); assay: indirect ELISA, BSA-coupled peptide coated, antibody titrated [also D00015 FIG. 3K]
T1 construct: also called BSA-(PA)15
Protocol: (§1) In brief, dipeptide repeat proteins were synthesized and purified by Schafer-N(Copenhagen, Denmark): (GA)₁₅: H-CHHHHHH(GA)₁₅-OH; (GP)₁₅: H-C(GP)₁₅-OH; (GR)₁₅: H-C(GR)₁₅-OH; (PA)₁₅: H-C(PA)₁₅-OH; (PR)₁₅: H—C(PR)₁₅-OH. DPR protein peptides were then conjugated via a bifunctional linker (SMCC) to bovine serum albumin (BSA). 96-well microplates (Corning Incorporated, Corning, USA) were coated with BSA-coupled or -uncoupled dipeptide repeat protein peptides at a concentration of either 5 μg/ml or 20 μg/ml in coating buffer (15 mM Na₂CO₃, 35 mM NaHCO₃, pH 9.42). Non-specific binding sites were blocked for 1 h at room temperature with PBS/0.1% Tween®-20 containing 2% BSA (Sigma-Aldrich, Buchs, Switzerland). Primary antibodies were diluted to the indicated concentrations and incubated 1 h at room temperature, followed by incubation with a donkey anti-human IgG Fcγ-specific antibody conjugated with HRP (Jackson ImmunoResearch Laboratories, Inc., West Grove, USA). Binding was determined by measurement of HRP activity in a standard colorimetric assay. EC₅₀ values were estimated by non-linear regression using GraphPad Prism software (San Diego, USA).

(PR)15: H-C(PR)15-OH = target: T2, (PR)15: H-C(PR)15-OH; assay: indirect ELISA, coated uncoupled peptide
T2 construct: synthetic, not coupled to BSA; also called poly-PR DPR protein peptide
T2 peptide: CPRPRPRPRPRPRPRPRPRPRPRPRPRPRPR

[2] = target: T3, (GA)15: H-CHHHHHH(GA)15-OH; assay: indirect ELISA, coated peptide
T3 construct: synthetic, not coupled to BSA; also called poly-GA DPR protein peptide
T3 peptide: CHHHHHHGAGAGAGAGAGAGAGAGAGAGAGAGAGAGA

[3] = target: T4, BSA-coupled (GP)15 DPR protein peptide (bovine, conjugated via a bifunctional linker (SMCC) to bovine serum albumin); assay: indirect ELISA, BSA-coupled peptide coated, antibody titrated [also D00014 FIG. 3G]
T4 construct: also called BSA-(GP)15
T4 sequence (P02769 25-607 limits assumed, chain 2 of 2, one chain of several): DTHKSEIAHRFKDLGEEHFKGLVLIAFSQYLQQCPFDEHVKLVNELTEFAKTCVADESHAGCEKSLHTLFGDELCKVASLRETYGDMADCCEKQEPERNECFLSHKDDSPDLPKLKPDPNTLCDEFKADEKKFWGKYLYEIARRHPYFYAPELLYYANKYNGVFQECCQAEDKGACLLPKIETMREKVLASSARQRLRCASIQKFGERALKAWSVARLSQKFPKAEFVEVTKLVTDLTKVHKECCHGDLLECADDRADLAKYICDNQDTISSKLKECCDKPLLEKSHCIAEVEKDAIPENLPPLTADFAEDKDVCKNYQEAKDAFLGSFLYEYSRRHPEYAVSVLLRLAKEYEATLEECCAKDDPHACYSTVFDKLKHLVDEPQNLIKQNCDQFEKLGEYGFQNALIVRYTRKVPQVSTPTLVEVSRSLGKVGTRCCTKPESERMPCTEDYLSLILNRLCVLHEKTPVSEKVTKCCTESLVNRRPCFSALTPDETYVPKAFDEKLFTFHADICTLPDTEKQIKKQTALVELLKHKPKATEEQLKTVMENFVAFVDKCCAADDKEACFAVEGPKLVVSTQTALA
Protocol: as §1

(GP)15: H-C(GP)15-OH [4] = target: T5, (GP)15: H-C(GP)15-OH; assay: indirect ELISA, uncoupled peptide coated, antibody titrated [also D00014 FIG. 3G]
T5 construct: synthetic, not coupled to BSA; also called poly-GP DPR protein peptide
T5 peptide: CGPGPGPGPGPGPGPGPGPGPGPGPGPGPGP
Protocol: as §1

(GP)15: H-C(GP)15-OH [5] = target: T5, (GP)15: H-C(GP)15-OH; assay: indirect ELISA, uncoupled peptide coated, antibody titrated [also D00014 FIG. 3H]
Protocol: as §1

[6] = target: T3, (GA)15: H-CHHHHHH(GA)15-OH; assay: indirect ELISA, uncoupled peptide coated, antibody titrated [also D00013 FIG. 3E]
Protocol: as §1

T1 sequence (peptide, as listed by the source limits assumed, chain 1 of 2): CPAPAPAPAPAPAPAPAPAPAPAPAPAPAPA
T1 sequence (P02769 25-607 limits assumed, chain 2 of 2): as the sequence (P02769 25-607 limits assumed, chain 2 of 2, one chain of several) above

B1: NI-308.4M1 (antibody, V domains shown)
VH: EVQLVETGGGVVQPGGSLRLSCEASGFTIGTYAMHWVRQFPGKGLDWVAVISFDGTTEYYTDAVKGRFTISRDNAKNTLYLQMNYLRGDDTAIYFCARDFTSSGETGSWTQVPDLWGQGTLVTVSS
VL: CEIVMTQSPATLSLSPGERATLSCRASQSVTKYLAWYQQKPGQAPRLLIYDVSYRAAGTPARFSGSGSGTDFTLTISSLEPEDFAVYYCHQRSSWPPVTFGGGTKVEIK
notes: Recombinant complete human IgG1, kappa
Work on B1 yielded an EC50 [1] of 0.14 nM.

B2: NI-308.24E11 (antibody, V domains shown)
VH: QVQLQESGPGLVKPSETLSLTCTVSTTSLRSYFWSWIRQPPGKGLEWIGYVYYSGSTIYNPSLKNRVTISIDTSKNQFSLNLRSVTAADTAMYFCARGVPAETDARDFPPYYFDHWGQGTLVTVSS
VL: CDIQLTQSPSSLSASVGNRITFTCQASQDIRYYLNWYQQKPGKAPKLLIYDVSNLDTGVPPRFSGSGSGTNFTFTISSLQPEDIAVYYCQQYEGLPVTFGGGTKVEIK
notes: as for B1
In the case of B2, the EC50 ((PR)15: H-C(PR)15-OH) is reported as 12.8 nM and the binding result [2] is reported as “no binding”.

B3: NI-308.5G2 (antibody, V domains shown)
VH: EVQLVQSGADLRNPGASVTVSCTASGYHFADNAINWLRQAPGQRLEWMGWINIYSGNTKYSQNFQGRVTFTRNTSASTAFMHLRSLRSEDTAVYFCARDPDSSGYYLPYFDYWGQGTLVTVSS
VL: DIQLTQSPDSLTLSLGERATINCKSSQSVFYNSNNKNYLAWYQQKPGQPPKLLMYWASTRESGVTDRFSGSGSGTDFTLTITNLQAEDVAVYYCQQFYSSPLTFGGGTKVEIK
notes: as for B1
Binder B3 has an EC50 [3] of 0.21 nM and an EC50 ((GP)15: H-C(GP)15-OH [4]) of 0.4 nM.

B4: NI-308.46E9 (antibody, V domains shown)
VH: QVQLQESGPGLVKPSETLSLTCTVSGASISGSTYYWGWIRQPPGKGLEYIGRIYYSGSTYYNPSLKSRATISVDTSKNQLSLTLSSVTAADTAVYYCVRPFYAGSGNSPFDYWGQGTLVTVSS
VL: CEIVLTQSPATVSVSPGERATLSCRASQSVSTNLAWYQQKPGQPPRLLIYGASTRATGIPARFSGSGSGAEFTLTISSLQSEDFVVYYCQQYNNWPPAFGGGTKVEIK
notes: as for B1
For B4, the EC50 ((GP)15: H-C(GP)15-OH [5]) was 22 nM.

B5: NI-308.45C2 (antibody, V domains shown)
VH: QLQLQESGPGLVKPSQILSLTCAISGDSVFSNSAAWNWIRQSPSRGLEWLGRTYYRSKWDNDYAPSVKSRISINPDTSKNQFSLQLNSVTPEDTAVYYCAREVAYCGGDCYSVSFDYWGQGTLVTVSS
VL: not shown
notes: as for B1
In the case of B5, the EC50 [6] is reported as 1.1 nM.
